Assay results taken from paper PMC4941815 (Molecular cell, 2016).
Where two headings read alike, the source gives them in different places. One block for each binder: values may come before it.

B2: kdSRPK1, kinase inactive SRPK1 containing K109M (enzyme, UniProt Q96SB4 1-655, looked up)
chain: MERKVLALQARKKRTKAKKDKAQRKSETQHRGSAPHSESDLPEQEEEILGSDDDEQEDPNDYCKGGYHLVKIGDLFNGRYHVIRKLGWGHFSTVWLSWDIQGKKFVAMMVVKSAEHYTETALDEIRLLKSVRNSDPNDPNREMVVQLLDDFKISGVNGTHICMVFEVLGHHLLKWIIKSNYQGLPLPCVKKIIQQVLQGLDYLHTKCRIIHTDIKPENILLSVNEQYIRRLAAEATEWQRSGAPPPSGSAVSTAPQPKPADKMSKNKKKKLKKKQKRQAELLEKRMQEIEEMEKESGPGQKRPNKQEESESPVERPLKENPPNKMTQEKLEESSTIGQDQTLMERDTEGGAAEINCNGVIEVINYTQNSNNETLRHKEDLHNANDCDVQNLNQESSFLSSQNGDSSTSQETDSCTPITSEVSDTMVCQSSSTVGQSFSEQHISQLQESIRAEIPCEDEQEQEHNGPLDNKGKSTAGNFLVNPLEPKNAEKLKVKIADLGNACWVHKHFTEDIQTRQYRSLEVLIGSGYNTPADIWSTACMAFELATGDYLFEPHSGEEYTRDEDHIALIIELLGKVPRKLIVAGKYSKEFFTKKGDLKHITKLKPWGLFEVLVEKYEWSQEEAAGFTDFLLPMLELIPEKRATAAECLRHPWLNS
B3: full-length His-tagged CLK1 (enzyme)
chain: not shown

Assays:
His-tagged SRPK1 [1] = target: T1, His-tagged SRPK1 (UniProt Q96SB4 1-655); assay: pull-down
[2] = target: B3; assay: displacement of 32P-phospho-GST-SRSF1 from His-CLK1 on Ni-resin
His-tagged SRPK1 [3] = target: T1, His-tagged SRPK1; assay: pull-down; remark: listed apart in the source
[4] = target: B2; assay: displacement of 32P-phospho-GST-SRSF1 from His-CLK1 on Ni-resin

binding result (His-tagged SRPK1 [1]): binds
B1: GST-tagged form of the CLK1 N-terminus (domain or fragment, UniProt P49759 1-160, looked up)
chain: MRHSKRTYCPDWDDKDWDYGKWRSSSSHKRRKRSHSSAQENKRCKYNHSKMCDSHYLESRSINEKDYHSRRYIDEYRNDYTQGCEPGHRQRDHESRYQNHSSKSSGRSGRSSYKSKHRIHHSTSHRRSHGKSHRRKRTRSVEDDEEGHLICQSGDVLSAR

Binder: B2
stoichiometry N [2]: 1

Binder: B3
binding result (His-tagged SRPK1 [3]): binds | Kd [4]: 16 ± 6 nM
